Data reported in PMC7005744, “Cis- and trans-regulations of pre-mRNA splicing by RNA editing enzymes influence cancer development”.

Experiments:
ADAR1 = target: T1, ADAR1 (UniProt P55265 296-1226); assay: EMSA; dose-dependent shift; REMSA/UV: 0.5 pmol 32P probe, 1x REMSA binding buffer (Thermo), 0.1 ug/ul yeast tRNA, room temperature 30 min, 6% native PAGE; pull-down: 250 mM NaCl, 10 mM MgCl2, 50 mM Hepes pH 7.4, 0.5% Igepal CA-630, tRNA, 4 C or RT 30 min; conditions: protein: recombinant; tags: FLAG; chain copies: 2; label: 5' 32P; hairpin
T1 sequence: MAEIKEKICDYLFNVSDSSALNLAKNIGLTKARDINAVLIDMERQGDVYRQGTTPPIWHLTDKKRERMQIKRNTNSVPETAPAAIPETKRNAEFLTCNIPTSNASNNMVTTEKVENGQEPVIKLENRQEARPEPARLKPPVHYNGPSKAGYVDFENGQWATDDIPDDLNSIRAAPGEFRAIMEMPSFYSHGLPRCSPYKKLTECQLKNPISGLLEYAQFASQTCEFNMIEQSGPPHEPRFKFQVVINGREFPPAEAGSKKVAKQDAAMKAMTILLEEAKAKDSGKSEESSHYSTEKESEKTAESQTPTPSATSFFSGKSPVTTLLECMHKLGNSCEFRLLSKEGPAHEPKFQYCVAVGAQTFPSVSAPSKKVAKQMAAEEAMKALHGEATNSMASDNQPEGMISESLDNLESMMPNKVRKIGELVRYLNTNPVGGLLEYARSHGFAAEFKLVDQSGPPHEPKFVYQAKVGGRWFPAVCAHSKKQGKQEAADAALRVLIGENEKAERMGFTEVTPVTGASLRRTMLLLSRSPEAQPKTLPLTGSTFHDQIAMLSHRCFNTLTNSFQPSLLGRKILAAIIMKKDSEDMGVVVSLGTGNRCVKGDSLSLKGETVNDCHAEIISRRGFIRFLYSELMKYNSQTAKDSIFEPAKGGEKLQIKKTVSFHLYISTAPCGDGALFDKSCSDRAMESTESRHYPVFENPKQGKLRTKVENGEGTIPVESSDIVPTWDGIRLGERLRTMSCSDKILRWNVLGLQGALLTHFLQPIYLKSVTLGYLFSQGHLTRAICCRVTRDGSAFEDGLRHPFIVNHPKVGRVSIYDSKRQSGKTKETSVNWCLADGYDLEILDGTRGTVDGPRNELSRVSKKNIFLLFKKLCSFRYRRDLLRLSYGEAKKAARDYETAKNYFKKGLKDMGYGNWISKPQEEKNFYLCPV

ADAR2 = ADAR2 (UniProt P78563 1-741); assay: as above; conditions: protein: recombinant; tags: FLAG; chain copies: 2; label: 5' 32P; hairpin

B1: CCDC15 In8-9 WT (structured_RNA)
RNA: GGUAGAAAAGAAAAAUGACACUCGAGUGUUUUUUUCUCUUCUACUU
Question: Does B1 bind (ADAR1)?
Answer: binds

Question: Does B1 bind (ADAR2)?
Answer: binds
